In paper PMC5647378, “Structural and Mechanistic Analysis of Drosophila melanogaster Agmatine N-Acetyltransferase, an Enzyme that Catalyzes the Formation of N-Acetylagmatine” (Scientific Reports, 2017):
Like-named read-outs stand apart in the source and are kept apart here.

Legend:
[1] = target: T1, Drosophila melanogaster AgmNAT (CG15766), wild-type (Drosophila melanogaster, UniProt Q9W469); test: AgmNAT dead-end and product inhibition analysis; type: biochemical
Protocol: Initial velocities were determined by varying the concentration of one substrate, while holding the other substrate at a fixed concentration. […] The resulting initial velocity data was fit to equation 3 for an ordered Bi-Bi mechanism and equation 4 for a ping pong mechanism using IGOR Pro 6.34 A, where vo is the initial velocity, Vmax is the maximal velocity, Kia is the dissociation constant for substrate A, Kb is the Michaelis constant for substrate B, Ka is the Michaelis constant for substrate A, [A] is the concentration of substrate A, and [B] is the concentration of substrate B.3 vo=Vmax[A][B]/KiaKb+Ka[B]+Kb[A]+[A][B] 4 vo=Vmax[A][B]/Ka[B]+Kb[A]+[A][B]
Inhibition experiments by either substrate analogs or N-acetylagamatine were used to discriminate between an ordered, random sequential, or ping pong kinetic mechanism. […] Initial velocity patterns were generated by varying the concentration of one substrate, holding the other substrate concentration at its apparent Km, and changing the concentration of inhibitor for each data set in triplicate. The resulting data was fit to equations 5–7, for competitive, noncompetitive, and uncompetitive inhibition respectively using SigmaPlot 12.0. For […], vo is the initial velocity, Vmax,app is the apparent maximal velocity, Km,app is the apparent Michaelis constant, [S] is the substrate concentration, [I] is the inhibitor concentration, and Ki is the inhibition constant.5 vo=Vmax,app[S]/Km,app(1+[I]/Ki)+[S] 6 vo=Vmax,app[S]/Km,app(1+[I]/Ki)+[S](1+[I]/Ki) 7 vo=Vmax,app[S]/Km,app+[S](1+[I]/Ki)

[2] = target: T1, Drosophila melanogaster AgmNAT (CG15766), wild-type; test: AgmNAT steady-state kinetics, coenzyme A release with Ellman's reagent (DTNB); type: biochemical; conditions: for acceptance as amine substrate: amine substrate screen with acetyl-CoA
Protocol: Steady-state kinetic constants for AgmNAT were determined by measuring the rate of coenzyme A release using Ellman’s reagent (DTNB) at 412 nm (molar absorptivity = 13,600 M^−1 cm^−1)[15]–[17]. […] Initial velocities were measured using a Cary 300 Bio UV-Visible spectrophotometer at 22 °C. Acyl-CoA kinetic constants were evaluated by holding the concentration of agmatine at a constant saturating concentration (5 mM). […] The apparent kinetic constants were determined by fitting the resulting data to equation 1 using SigmaPlot 12.0, where vo is the initial velocity, Vmax,app is the apparent maximal velocity, [S] is the substrate concentration, and Km,app is the apparent Michaelis constant. Each assay was performed in triplicate and the uncertainty for the kcat,app and (kcat/Km)app values were calculated using equation 2, where σ is the standard error.1 vo=Vmax,app[S]/Km,app+[S] 2 σ(x/y)=x/y(σx/x)^2+(σy/y)^2

[3] = substrate: NCCCCNCCCN; test: as above; type: biochemical, Drosophila melanogaster; conditions: other: amine varied, 500 μM acetyl-CoA, 300 mM Tris-HCl pH 8.5, 150 µM DTNB, 22.0 °C
[4] = substrate: N=C(N)NCCCCN; test: as above; type: biochemical, Drosophila melanogaster; conditions: other: amine varied, 500 μM acetyl-CoA, 300 mM Tris-HCl pH 8.5, 150 µM DTNB, 22.0 °C
[5] = substrate: NCCCCCN; test: as above; type: biochemical, Drosophila melanogaster; conditions: other: amine varied, 500 μM acetyl-CoA, 300 mM Tris-HCl pH 8.5, 150 µM DTNB, 22.0 °C
[6] = substrate: N=C(N)NCCCCN; test: Steady-state kinetics of AgmNAT site-directed mutant E34A; type: biochemical, Drosophila melanogaster; conditions: other: E34A, agmatine varied, saturating acetyl-CoA, pH 8.5
Description: (§1) Following the amplification of the AgmNAT site-directed mutant, the sub-cloning, expression, and purification procedures are the same as discussed for the wild-type enzyme.

[7] = substrate: CC(=O)SCCNC(=O)CCNC(=O)[C@H](O)C(C)(C)COP(=O)(O)OP(=O)(O)OC[C@H]1O[C@@H](n2cnc3c(N)ncnc32)[C@H](O)[C@@H]1OP(=O)(O)O; test: as above; type: biochemical, Drosophila melanogaster; conditions: other: E34A, acetyl-CoA varied, saturating agmatine, pH 8.5
Description: as §1

[8] = substrate: N=C(N)NCCCCN; test: Steady-state kinetics of AgmNAT site-directed mutant H206A; type: biochemical, Drosophila melanogaster; conditions: other: H206A, agmatine varied, saturating acetyl-CoA, pH 8.5
Description: as §1

[9] = substrate: CC(=O)SCCNC(=O)CCNC(=O)[C@H](O)C(C)(C)COP(=O)(O)OP(=O)(O)OC[C@H]1O[C@@H](n2cnc3c(N)ncnc32)[C@H](O)[C@@H]1OP(=O)(O)O; test: as above; type: biochemical, Drosophila melanogaster; conditions: other: H206A, acetyl-CoA varied, saturating agmatine, pH 8.5
Description: as §1

[10] = substrate: N=C(N)NCCCCN; test: Steady-state kinetics of AgmNAT site-directed mutant S171A; type: biochemical, Drosophila melanogaster; conditions: other: S171A, agmatine varied, saturating acetyl-CoA, pH 8.5
Description: as §1

[11] = substrate: CC(=O)SCCNC(=O)CCNC(=O)[C@H](O)C(C)(C)COP(=O)(O)OP(=O)(O)OC[C@H]1O[C@@H](n2cnc3c(N)ncnc32)[C@H](O)[C@@H]1OP(=O)(O)O; test: as above; type: biochemical, Drosophila melanogaster; conditions: other: S171A, acetyl-CoA varied, saturating agmatine, pH 8.5
Description: as §1

[12] = substrate: N=C(N)NCCCCN; test: Steady-state kinetics of AgmNAT site-directed mutant P35A; type: biochemical, Drosophila melanogaster; conditions: other: P35A, agmatine varied, saturating acetyl-CoA, pH 8.5
Description: as §1

[13] = substrate: CC(=O)SCCNC(=O)CCNC(=O)[C@H](O)C(C)(C)COP(=O)(O)OP(=O)(O)OC[C@H]1O[C@@H](n2cnc3c(N)ncnc32)[C@H](O)[C@@H]1OP(=O)(O)O; test: as above; type: biochemical, Drosophila melanogaster; conditions: other: P35A, acetyl-CoA varied, saturating agmatine, pH 8.5
Description: as §1

Molecule: CCCCCCCC/C=C\CCCCCCCC(=O)SCCNC(=O)CCNC(=O)[C@H](O)C(C)(C)COP(=O)(O)OP(=O)(O)OC[C@H]1O[C@@H](n2cnc3c(N)ncnc32)[C@H](O)[C@@H]1OP(=O)(O)O [Oleoyl-CoA]
- Ki ([1]; varied substrate acetyl-CoA, constant agmatine (0.3 mM), read-out: Ki,s): 19 ± 1 µM
- Ki ([1]; varied substrate agmatine, constant acetyl-CoA (0.1 mM; 104 µM), read-out: Ki,i): 67 ± 4 µM
- Ki ([1]; varied substrate agmatine, constant acetyl-CoA (0.1 mM; 104 µM), read-out: Ki,s): 67 ± 4 µM
- type of inhibition plot (in words) ([1]; versus acetyl-CoA): competitive
- type of inhibition plot (in words) ([1]; versus agmatine): noncompetitive
- acceptance as acyl-CoA substrate ([2]; agmatine as amine substrate, oleoyl-CoA at 500 μM): not a substrate

Molecule: CC(=O)NCCCNCCCCN [N ^1-acetylspermidine]
- acceptance as amine substrate [2]: not AgmNAT substrates

Molecule: CC(=O)NCCCCN [N-acetylputrescine]
- acceptance as amine substrate [2]: not AgmNAT substrates

Molecule: CCCCCC(=O)SCCNC(=O)CCNC(=O)C(O)C(C)(C)COP(=O)(O)OP(=O)(O)OC[C@H]1O[C@@H](n2cnc3c(N)ncnc32)[C@H](O)[C@@H]1OP(=O)(O)O (stereo partly shown) [Hexanoyl-CoA]
- kcat,app ([2]; acyl-CoA varied, 5 mM agmatine, 300 mM Tris-HCl pH 8.5, 150 µM DTNB): 1.1 ± 0.04 s⁻¹
- Km ([2]; acyl-CoA varied, 5 mM agmatine, 300 mM Tris-HCl pH 8.5, 150 µM DTNB, read-out: Km,app): 110 µM

B1: Drosophila melanogaster AgmNAT (CG15766), wild-type (Drosophila melanogaster) (protein)
chain: MAKPIADDIVVRQVDVGETEQLMTFLLAHYYPEEPLTAGTHPPEPEAADKEFLLSNVPFGTCFVALHEGRIVAAVVAGPKDSHEPEHMAEEARKYAGGKWGSILHLLSAVETATDVCRRFSVPSCLHVHALGVDPQLRGRNLGGRLMETVAQRGRDLGHQLVSVDCTSVYSARLVQRLGYQLINTLRYVDHLDASGQQVIRPPPPHESVQTFVLHL
- Km [3]: 17000 ± 500 µM
- kcat [3]: 1.3 ± 0.009 s⁻¹
- kcat/Km [3]: 76 ± 0.5 M⁻¹ s⁻¹
- Km [4]: 300 ± 20 µM
- kcat [4]: 18 ± 1 s⁻¹
- kcat/Km [4]: 60000 ± 5000 M⁻¹ s⁻¹
- Km [5]: 32000 ± 6000 µM
- kcat [5]: 1 ± 0.1 s⁻¹
- kcat/Km [5]: 32 ± 6 M⁻¹ s⁻¹

B2: AgmNAT E34A mutant (Drosophila melanogaster; E34A) (protein)
chain: MAKPIADDIVVRQVDVGETEQLMTFLLAHYYPEAPLTAGTHPPEPEAADKEFLLSNVPFGTCFVALHEGRIVAAVVAGPKDSHEPEHMAEEARKYAGGKWGSILHLLSAVETATDVCRRFSVPSCLHVHALGVDPQLRGRNLGGRLMETVAQRGRDLGHQLVSVDCTSVYSARLVQRLGYQLINTLRYVDHLDASGQQVIRPPPPHESVQTFVLHL
- Km [6]: 6000 ± 1000 µM
- kcat [6]: 0.013 ± 0.001 s⁻¹
- kcat/Km [6]: 2.3 ± 0.3 M⁻¹ s⁻¹
- Km [7]: 18 ± 3 µM
- kcat [7]: 0.011 ± 0.0004 s⁻¹
- kcat/Km [7]: 600 ± 100 M⁻¹ s⁻¹

B3: AgmNAT H206A mutant (Drosophila melanogaster; H206A) (protein)
chain: MAKPIADDIVVRQVDVGETEQLMTFLLAHYYPEEPLTAGTHPPEPEAADKEFLLSNVPFGTCFVALHEGRIVAAVVAGPKDSHEPEHMAEEARKYAGGKWGSILHLLSAVETATDVCRRFSVPSCLHVHALGVDPQLRGRNLGGRLMETVAQRGRDLGHQLVSVDCTSVYSARLVQRLGYQLINTLRYVDHLDASGQQVIRPPPPAESVQTFVLHL
- Km [8]: 420 ± 40 µM
- kcat [8]: 1.2 ± 0.1 s⁻¹
- kcat/Km [8]: 2800 ± 300 M⁻¹ s⁻¹
- Km [9]: (2.4 ± 0.3) × 10^2 μM
- kcat [9]: 1.3 ± 0.1 s⁻¹
- kcat/Km [9]: 5000 ± 1000 M⁻¹ s⁻¹

B4: AgmNAT S171A mutant (Drosophila melanogaster; S171A) (protein)
chain: MAKPIADDIVVRQVDVGETEQLMTFLLAHYYPEEPLTAGTHPPEPEAADKEFLLSNVPFGTCFVALHEGRIVAAVVAGPKDSHEPEHMAEEARKYAGGKWGSILHLLSAVETATDVCRRFSVPSCLHVHALGVDPQLRGRNLGGRLMETVAQRGRDLGHQLVSVDCTSVYAARLVQRLGYQLINTLRYVDHLDASGQQVIRPPPPHESVQTFVLHL
- Km [10]: 1000 ± 200 µM
- kcat [10]: 1.7 ± 0.1 s⁻¹
- kcat/Km [10]: 1600 ± 300 M⁻¹ s⁻¹
- Km [11]: 24 ± 1 µM
- kcat [11]: 1.84 ± 0.03 s⁻¹
- kcat/Km [11]: 75000 ± 3000 M⁻¹ s⁻¹

B5: AgmNAT P35A mutant (Drosophila melanogaster; P35A) (protein)
chain: MAKPIADDIVVRQVDVGETEQLMTFLLAHYYPEEALTAGTHPPEPEAADKEFLLSNVPFGTCFVALHEGRIVAAVVAGPKDSHEPEHMAEEARKYAGGKWGSILHLLSAVETATDVCRRFSVPSCLHVHALGVDPQLRGRNLGGRLMETVAQRGRDLGHQLVSVDCTSVYSARLVQRLGYQLINTLRYVDHLDASGQQVIRPPPPHESVQTFVLHL
- Km [12]: 180 ± 20 µM
- kcat [12]: 0.36 ± 0.02 s⁻¹
- kcat/Km [12]: 1900 ± 200 M⁻¹ s⁻¹
- Km [13]: (2.3 ± 0.3) × 10^2 μM
- kcat [13]: 0.43 ± 0.03 s⁻¹
- kcat/Km [13]: 1900 ± 300 M⁻¹ s⁻¹
